In paper PMC12394075, “Domain coupling in activation of a family C GPCR” (Nature Chemical Biology, 2024):

Target: the molecule itself
Assay: SEC; Superdex 200 10/300 increase; 100 mM NaCl, 20 mM HEPES, pH 7.5

B1: isolated mGluR2 LBD (residues 22–502 with a Cys234Ser mutation) (domain or fragment, UniProt P31421 22-502, looked up)
chain: AKKVLTLEGDLVLGGLFPVHQKGGPAEECGPVNEHRGIQRLEAMLFALDRINRDPHLLPGVRLGAHILDSCSKDTHALEQALDFVRASLSRGADGSRHICPDGSYATHSDAPTAVTGVIGGSYSDVSIQVANLLRLFQIPQISYASTSAKLSDKSRYDYFARTVPPDFFQAKAMAEILRFFNWTYVSTVASEGDYGETGIEAFELEARARNISVATSEKVGRAMSRAAFEGVVRALLQKPSARVAVLFTRSEDARELLAATQRLNASFTWVASDGWGALESVVAGSERAAEGAITIELASYPISDFASYFQSLDPWNNSRNPWFREFWEERFHCSFRQRDCAAHSLRAVPFEQESKIMFVVNAVYAMAHALHNMHRALCPNTTHLCDAMRPVNGRRLYKDFVLNVKFDAPFRPADTDDEVRFDRFGDGIGRYNIFTYLRAGSGRYRYQKVGYWAEGLTLDTSFIPWASPSAGPLPASRCSE
notes: Rat is surmised because the same peptides are compared with the full-length rat construct; the simulations used human mGluR2; also called LBD-alone construct; LBD-only construct; source: Expi293 GNTI- cells, secreted into media, purified (anti-FLAG M2 resin, SEC)
  stoichiometry N: 2
